Experimental data taken from patent US20130079286A1 (Pieris, published 2013).

What was measured:
Trx-Aβ28 fusion protein [1] = target: T1, Trx-Aβ28 fusion protein (Escherichia coli (strain K12), UniProt P0AA25 1-76 = thioredoxin, Biotin-labelled through an NHS ester (2:1) in the capture and competitive ELISAs; unlabeled in the direct ELISA and as competitor.); assay: competitive ELISA: mutein captured, 5 nM biotinylated Trx-Aβ28 as tracer, unlabeled Trx-Aβ28 varied as competitor
T1 construct: the entry may be a nucleic acid; also called TrxAbeta28H6

MBP-Aβ40 fusion protein [2] = target: T2, MBP-Aβ40 fusion protein; assay: capture ELISA: mutein captured, biotinylated MBP-Aβ40 titrated
T2 construct: the entry may be a nucleic acid; Biotin-labelled in the capture ELISA, unlabeled in the direct ELISA and SPR; also called MBP-Abeta40
Experimental: (§1) FIG. 5 depicts the binding activity of the Lcn2 muteins H1-G1, S1-A4, and US7 in capture ELISAs with different biotinylated Aβ targets. StrepMAB-Immo at 10 μg/ml was immobilized on microtitre plates and employed for capturing of 1 JAM Lcn2 muteins via the Strep-tag H. In figures A to C the binding of the Lcn2 muteins S1-A4 and US7 to (A) biotinylated Aβ40, (B) biotinylated Trx-Aβ28, and (C) biotinylated MBP-Aβ40 are shown. Binding was detected by incubation with ExtrAvidin/AP and a subsequent chromogenic reaction with pNPP. Ovalbumin (Ova), thioredoxin (Trx), and maltose binding protein (MBP) were used as negative controls. Additionally, binding of wild-type (wt) lipocalin was tested. The data were fitted to a monovalent binding model.
For selective capturing of the Lcn2 muteins carrying the C-terminal Strep-tag II (Schmidt and Skerra (2007) Nat. Protoc. 2, 1528-1535), a 96-well MaxiSorp polystyrene microtitre plate (Nunc, Langenselbold, Germany) was coated with 10 μg/mL StrepMAB-Immo (IBA, Göttingen, Germany) in PBS over night at 4° C. and blocked with 3% (w/v) BSA in PBS/T at room temperature for 1 h. After 3 washing steps with PBS/T, 50 μL of a 1 μM solution of the purified Lcn2 muteins from Example 7 were applied to all wells for 1 h. […]

MBP-Aβ40 fusion protein [3] = target: T2, MBP-Aβ40 fusion protein; assay: SPR (Biacore X), MBP-Aβ40 amine-coupled, mutein as analyte
Experimental: Real time analysis of Lcn2 muteins was performed on a Biacore X system (Biacore, Uppsala, Sweden) using PBS/T (PBS containing 0.005% (v/v) Tween 20) as running buffer. A 50 μg/mL solution of MBP-Aβ40 from Example 2 in 10 mM Na-acetate, pH 4.5 was immobilized onto a […] chip (Xantec, Düsseldorf, Germany) using standard amine coupling chemistry, resulting in a ligand density of 1455 resonance units (RU). […] The sensorgrams were corrected by subtraction of the corresponding signals measured for the control channel, which had been activated and blocked with ethanolamine. […] During this step the kₒₙ and koff rates were fitted globally, while the maximum response difference Rₘₐₓ was fitted locally for each curve.

Trx-Aβ28 fusion protein [4] = target: T1, Trx-Aβ28 fusion protein; assay: direct ELISA: Trx-Aβ28 coated, mutein titrated, detected via Strep-tag II
Experimental: The Aβ targets Trx-Aβ28 and MBP-Aβ40 as well as the control protein maltose binding protein (MBP) were immobilized at 2 μM in PBS over night. Bound Lcn2 muteins were detected via their Strep-tag II using Streptavidin/AP followed by a chromogenic reaction with pNPP. As a control, the binding of wild-type (wt) lipocalin was tested. The data were fitted to a monovalent binding model.
Alternatively, for a “direct” ELISA, 2 μM unlabeled Aβ40 target from Example 2 was adsorbed onto a 96-well MaxiSorp polystyrene microliter plate (Nunc, Langenselbold, Germany) and incubated with the purified Lcn2 mutein, which was detected via the Strep-tag II using a 1:1500 dilution of Streptavidin/AP conjugate (GE Healthcare UK Ltd, Buckinghamshire, UK). As a control, 2 μM MBP from Example 2 was adsorbed onto the ELISA plate. Absorption at 405 nm was measured in a SpectraMax 250 reader (Molecular Devices, Sunnyvale, USA).

[5] = target: T3, Aβ40 peptide, non-labeled (human); assay: SPOT membrane of overlapping Aβ40 peptides, 50 nM mutein
T3 construct: Non-labeled synthetic peptide (W. M. Keck Laboratory); also called Abeta40; amyloid beta peptide
T3 sequence (peptide, as listed by the source): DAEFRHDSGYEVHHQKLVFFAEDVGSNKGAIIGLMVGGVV

central peptide Aβ16-27 = target: T4, central peptide Aβ16-27; assay: capture ELISA: mutein captured, Aβ16-27 titrated
T4 construct: Bought from the Peptide Speciality Laboratory
T4 peptide: KLVFFAEDVGSN

ovalbumin = target: T5, ovalbumin (UniProt P01012 2-386); assay: capture ELISA: 1 µM Lcn2 protein captured via Strep-tag II on coated StrepMAB-Immo, biotinylated target titrated, ExtrAvidin/AP + pNPP
T5 sequence (looked up): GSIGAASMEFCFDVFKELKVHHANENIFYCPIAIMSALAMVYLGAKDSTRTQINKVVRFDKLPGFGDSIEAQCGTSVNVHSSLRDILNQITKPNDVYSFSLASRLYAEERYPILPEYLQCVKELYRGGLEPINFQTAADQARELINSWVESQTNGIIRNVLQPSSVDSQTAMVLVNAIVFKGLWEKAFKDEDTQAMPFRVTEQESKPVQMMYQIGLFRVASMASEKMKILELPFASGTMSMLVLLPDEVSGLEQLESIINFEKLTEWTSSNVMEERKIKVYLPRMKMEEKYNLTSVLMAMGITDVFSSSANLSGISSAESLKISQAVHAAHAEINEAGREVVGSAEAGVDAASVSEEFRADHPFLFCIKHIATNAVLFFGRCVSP
Experimental: as §1
For selective capturing of the Lcn2 muteins carrying the C-terminal Strep-tag II (Schmidt and Skerra (2007) Nat. Protoc. 2, 1528-1535), a 96-well MaxiSorp polystyrene microtitre plate (Nunc, Langenselbold, Germany) was coated with 10 μg/mL StrepMAB-Immo (IBA, Göttingen, Germany) in PBS over night at 4° C. and blocked with 3% (w/v) BSA in PBS/T at room temperature for 1 h. After 3 washing steps with PBS/T, 50 μL of a 1 μM solution of the purified Lcn2 muteins from Example 7 were applied to all wells for 1 h. After washing, 50 μL of a dilution series of the biotinylated targets Aβ40, MBP-Aβ40 or Trx-Aβ28 from Example 2 were added and incubated for 1 h whereby the biotinylated forms of Ova, MBP and Trx from Example 2 served as negative control proteins. The wells were washed again and bound conjugate was detected with 50 μL of ExtrAvidin/AP conjugate (Sigma-Aldrich, Steinheim, Germany) diluted 1:5000 in PBS/T for 1 h, followed by signal development in the presence of 100 μL 0.5 mg/mL p-nitrophenyl phosphate (AppliChem, Darmstadt, Germany) in 100 mM Tris/HCl, pH 8.8, 100 mM NaCl, 5 mM MgCl₂.

B1: Lcn2 mutein S1-A4 (designed binder)
chain: QDSTSDLIPAPPLSKVPLQQNFQDNQFHGKWYVVGVAGNYTLREDKDPLKMYATIYELKEDKSYNVTSVGFRLKKCNYKIRTFVPGSQPGEFTLGIIKSQPGMTSYLVRVVSTNYNQHAMVFFKTVGQNREMFNITLYGRTKELTSELKENFIRFSKSLGLPENHIVFPVPIDQCIDG
Kd (Trx-Aβ28 fusion protein [1]): 21.7 nM
Kd (MBP-Aβ40 fusion protein [2]): 4.7 nM
Kd (MBP-Aβ40 fusion protein [3]): 1.7 nM
Kd (Trx-Aβ28 fusion protein [4]): 16.2 nM
binding result [5]: binds
Kd (central peptide Aβ16-27): 2.6 nM
binding result (ovalbumin): no binding (tested: 250 nM)
